B1: peptide of SEQ ID NO: 51 (peptide)
peptide: cyclo(R[dA]FQAFRKMWPFFAM)
SMILES: CSCC[C@@H]1NC(=O)[C@H](C)NC(=O)[C@H](Cc2ccccc2)NC(=O)[C@H](Cc2ccccc2)NC(=O)[C@@H]2CCCN2C(=O)[C@H](Cc2c[nH]c3ccccc23)NC(=O)[C@H](CCSC)NC(=O)[C@H](CCCCN)NC(=O)[C@H](CCCNC(=N)N)NC(=O)[C@H](Cc2ccccc2)NC(=O)[C@H](C)NC(=O)[C@H](CCC(N)=O)NC(=O)[C@H](Cc2ccccc2)NC(=O)[C@@H](C)NC(=O)[C@H](CCCNC(=N)N)NC1=O
B2: peptide of SEQ ID NO: 49 (peptide)
peptide: RDFQSFRKMWPFFAM
modifications: head-to-tail cyclic: linker L is C(=O) between the N-terminal amino group of residue 1 and the alpha carbon of residue 15
B3: peptide of SEQ ID NO: 52 (peptide)
peptide: cyclo(R[dA]FQAFRKMWPFFAM)
SMILES: CSCC[C@@H]1NC(=O)[C@H](C)NC(=O)[C@H](Cc2ccccc2)NC(=O)[C@H](Cc2ccccc2)NC(=O)[C@@H]2CCCN2C(=O)[C@H](Cc2c[nH]c3ccccc23)NC(=O)[C@H](CCSC)NC(=O)[C@H](CCCCN)NC(=O)[C@H](CCCNC(=N)N)NC(=O)[C@H](Cc2ccccc2)NC(=O)[C@H](C)NC(=O)[C@H](CCC(N)=O)NC(=O)[C@H](Cc2ccccc2)NC(=O)[C@@H](C)NC(=O)[C@H](CCCNC(=N)N)NC1=O
B4: peptide of SEQ ID NO: 38 (peptide)
peptide: Ac-GRDFQSFRKMWAFFA[dM]-NH2
SMILES: CSCC[C@H](NC(=O)[C@H](CCCCN)NC(=O)[C@H](CCCNC(=N)N)NC(=O)[C@H](Cc1ccccc1)NC(=O)[C@H](CO)NC(=O)[C@H](CCC(N)=O)NC(=O)[C@H](Cc1ccccc1)NC(=O)[C@H](CC(=O)O)NC(=O)[C@H](CCCNC(=N)N)NC(=O)CNC(C)=O)C(=O)N[C@@H](Cc1c[nH]c2ccccc12)C(=O)N[C@@H](C)C(=O)N[C@@H](Cc1ccccc1)C(=O)N[C@@H](Cc1ccccc1)C(=O)N[C@@H](C)C(=O)N[C@H](CCSC)C(N)=O
B5: peptide of SEQ ID NO: 39 (peptide)
peptide: Ac-GRDFQ[dA]FRKMWPFFAM-NH2
SMILES: CSCC[C@H](NC(=O)[C@H](C)NC(=O)[C@H](Cc1ccccc1)NC(=O)[C@H](Cc1ccccc1)NC(=O)[C@@H]1CCCN1C(=O)[C@H](Cc1c[nH]c2ccccc12)NC(=O)[C@H](CCSC)NC(=O)[C@H](CCCCN)NC(=O)[C@H](CCCNC(=N)N)NC(=O)[C@H](Cc1ccccc1)NC(=O)[C@@H](C)NC(=O)[C@H](CCC(N)=O)NC(=O)[C@H](Cc1ccccc1)NC(=O)[C@H](CC(=O)O)NC(=O)[C@H](CCCNC(=N)N)NC(=O)CNC(C)=O)C(N)=O
B6: peptide of SEQ ID NO: 53 (peptide)
peptide: cyclo(R[dA]FQAFRKMWPFFAM)
SMILES: CSCC[C@@H]1NC(=O)[C@H](C)NC(=O)[C@H](Cc2ccccc2)NC(=O)[C@H](Cc2ccccc2)NC(=O)[C@@H]2CCCN2C(=O)[C@H](Cc2c[nH]c3ccccc23)NC(=O)[C@H](CCSC)NC(=O)[C@H](CCCCN)NC(=O)[C@H](CCCNC(=N)N)NC(=O)[C@H](Cc2ccccc2)NC(=O)[C@H](C)NC(=O)[C@H](CCC(N)=O)NC(=O)[C@H](Cc2ccccc2)NC(=O)[C@@H](C)NC(=O)[C@H](CCCNC(=N)N)NC1=O
B7: peptide of SEQ ID NO: 43 (peptide)
peptide: Ac-GR[dA]FQ[dA]FRKMWPFFAM-NH2
SMILES: CSCC[C@H](NC(=O)[C@H](C)NC(=O)[C@H](Cc1ccccc1)NC(=O)[C@H](Cc1ccccc1)NC(=O)[C@@H]1CCCN1C(=O)[C@H](Cc1c[nH]c2ccccc12)NC(=O)[C@H](CCSC)NC(=O)[C@H](CCCCN)NC(=O)[C@H](CCCNC(=N)N)NC(=O)[C@H](Cc1ccccc1)NC(=O)[C@@H](C)NC(=O)[C@H](CCC(N)=O)NC(=O)[C@H](Cc1ccccc1)NC(=O)[C@@H](C)NC(=O)[C@H](CCCNC(=N)N)NC(=O)CNC(C)=O)C(N)=O
B8: peptide of SEQ ID NO: 40 (peptide)
peptide: Ac-GRDFQSFRKMW[dA]FFAM-NH2
SMILES: CSCC[C@H](NC(=O)[C@H](C)NC(=O)[C@H](Cc1ccccc1)NC(=O)[C@H](Cc1ccccc1)NC(=O)[C@@H](C)NC(=O)[C@H](Cc1c[nH]c2ccccc12)NC(=O)[C@H](CCSC)NC(=O)[C@H](CCCCN)NC(=O)[C@H](CCCNC(=N)N)NC(=O)[C@H](Cc1ccccc1)NC(=O)[C@H](CO)NC(=O)[C@H](CCC(N)=O)NC(=O)[C@H](Cc1ccccc1)NC(=O)[C@H](CC(=O)O)NC(=O)[C@H](CCCNC(=N)N)NC(=O)CNC(C)=O)C(N)=O
B9: peptide of SEQ ID NO: 54 (peptide)
peptide: cyclo(R[dA]FQAFRKMWPFFAM)
SMILES: CSCC[C@@H]1NC(=O)[C@H](C)NC(=O)[C@H](Cc2ccccc2)NC(=O)[C@H](Cc2ccccc2)NC(=O)[C@@H]2CCCN2C(=O)[C@H](Cc2c[nH]c3ccccc23)NC(=O)[C@H](CCSC)NC(=O)[C@H](CCCCN)NC(=O)[C@H](CCCNC(=N)N)NC(=O)[C@H](Cc2ccccc2)NC(=O)[C@H](C)NC(=O)[C@H](CCC(N)=O)NC(=O)[C@H](Cc2ccccc2)NC(=O)[C@@H](C)NC(=O)[C@H](CCCNC(=N)N)NC1=O

[ ]: non-standard residue; d: D form.

Chain of human FOXP3 tagged with 6 histidines at the C terminus (human) (Q9BZS1 other isoform, or with tags, fused parts or gaps): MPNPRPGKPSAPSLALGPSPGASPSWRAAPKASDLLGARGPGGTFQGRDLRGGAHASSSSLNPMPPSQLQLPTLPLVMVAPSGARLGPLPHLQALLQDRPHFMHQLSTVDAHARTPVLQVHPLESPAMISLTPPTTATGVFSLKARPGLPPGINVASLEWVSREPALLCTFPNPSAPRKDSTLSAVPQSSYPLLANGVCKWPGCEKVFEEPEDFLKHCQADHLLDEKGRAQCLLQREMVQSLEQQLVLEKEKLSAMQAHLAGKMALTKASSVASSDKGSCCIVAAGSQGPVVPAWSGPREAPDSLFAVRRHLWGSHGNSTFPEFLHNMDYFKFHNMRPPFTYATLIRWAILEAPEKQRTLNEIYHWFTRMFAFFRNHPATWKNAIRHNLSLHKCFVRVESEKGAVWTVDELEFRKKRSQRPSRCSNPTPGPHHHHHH

The test concerns the target human FOXP3 tagged with 6 histidines at the C terminus (human) (UniProt Q9BZS1). Kind of test: SPR (ProteOn XPR36), FOXP3-6His immobilized on GLM chip, peptide 1-20 µM injected; ratio to p60 (SEQ ID NO: 1).
Regarding RDFQSFRHMWPFFAM [peptide of SEQ ID NO: 28], the Ratio binding Peptide/p60 (fold change) came to 2.6 fold change.

In the case of B1, the Ratio binding Peptide/p60 (fold change) turned out to be 21.4 fold change.

As to RDFQSFRKMWVFFAM [peptide of SEQ ID NO: 33], the Ratio binding Peptide/p60 (fold change) came out at 1.3 fold change.

RDFQNFRKMWPFFAM [peptide of SEQ ID NO: 21]: the Ratio binding Peptide/p60 (fold change) worked out at 3.2 fold change.

Take RDFQRFRKMWPFFAM [peptide of SEQ ID NO: 20]: the Ratio binding Peptide/p60 (fold change) worked out at 3.7 fold change.

Turning to RDFQEFRKMWPFFAM [peptide of SEQ ID NO: 23], the Ratio binding Peptide/p60 (fold change) was 1.3 fold change.

For RDFQYFRKMWPFFAM [peptide of SEQ ID NO: 24], the Ratio binding Peptide/p60 (fold change) was determined as 4.6 fold change.

RDFQKFRKMWPFFAM [peptide of SEQ ID NO: 25]: the Ratio binding Peptide/p60 (fold change) came out at 4 fold change.

For RDLQSFRKMWPFFAM [peptide of SEQ ID NO: 18], the Ratio binding Peptide/p60 (fold change) worked out at 1.9 fold change.

Consider RYFQSFRKMWPFFAM [peptide of SEQ ID NO: 8], for which the Ratio binding Peptide/p60 (fold change) amounted to 1.4 fold change.

With B2, the Ratio binding Peptide/p60 (fold change) worked out at 5 fold change.

For B3, the Ratio binding Peptide/p60 (fold change) was 13 fold change.

For RDFQSFRKMWKFFAM [peptide of SEQ ID NO: 37], the Ratio binding Peptide/p60 (fold change) was 4.1 fold change.

RSFQSFRKMWPFFAM [peptide of SEQ ID NO: 7]: the Ratio binding Peptide/p60 (fold change) worked out at 1.4 fold change.

Take RDFQSFRRMWPFFAM [peptide of SEQ ID NO: 29]: the Ratio binding Peptide/p60 (fold change) was determined as 1.4 fold change.

As for B4, the Ratio binding Peptide/p60 (fold change) was 1.1 fold change.

Consider RDFQSFRKMWRFFAM [peptide of SEQ ID NO: 31], for which the Ratio binding Peptide/p60 (fold change) stood at 2.8 fold change.

On to RKFQSFRKMWPFFAM [peptide of SEQ ID NO: 12], for which the Ratio binding Peptide/p60 (fold change) was 2.2 fold change.

Turning to RNFQSFRKMWPFFAM [peptide of SEQ ID NO: 11], the Ratio binding Peptide/p60 (fold change) was 1.4 fold change.

As to H-RAFQAFRKMWPFFAM-OH [peptide of SEQ ID NO: 42], the Ratio binding Peptide/p60 (fold change) came to 4.1 fold change.

In the case of RDFQSFRKMWNFFAM [peptide of SEQ ID NO: 32], the Ratio binding Peptide/p60 (fold change) amounted to 1.4 fold change.

On to B5, for which the Ratio binding Peptide/p60 (fold change) was 3.3 fold change.

As to RDYQSFRKMWPFFAM [peptide of SEQ ID NO: 17], the Ratio binding Peptide/p60 (fold change) is 3.3 fold change.

Regarding Ac-GRAFQSFRKMWAFFAM-NH2 [peptide of SEQ ID NO: 44], the Ratio binding Peptide/p60 (fold change) turned out to be 3 fold change.

As to B6, the Ratio binding Peptide/p60 (fold change) amounted to 2.2 fold change.

Regarding B7, the Ratio binding Peptide/p60 (fold change) was determined as 4.9 fold change.

On to RWFQSFRKMWPFFAM [peptide of SEQ ID NO: 9], for which the Ratio binding Peptide/p60 (fold change) came to 1.4 fold change.

Turning to B8, the Ratio binding Peptide/p60 (fold change) was 2.2 fold change.

Consider B9, for which the Ratio binding Peptide/p60 (fold change) stood at 25.3 fold change.

On to RDFQWFRKMWPFFAM [peptide of SEQ ID NO: 22], for which the Ratio binding Peptide/p60 (fold change) stood at 2.4 fold change.

For the molecule H-R[dA]FQSFRKMWPFFAM-OH [peptide of SEQ ID NO: 6], the Ratio binding Peptide/p60 (fold change) turned out to be 3.3 fold change.

With RDWQSFRKMWPFFAM [peptide of SEQ ID NO: 16], the Ratio binding Peptide/p60 (fold change) was 3.7 fold change.

With RDFQSFRKMWYFFAM [peptide of SEQ ID NO: 35], the Ratio binding Peptide/p60 (fold change) came to 1.3 fold change.

Source of the values: patent US20190276496A1 (FUNDACI N PARA LA INVESTIGACI N M DICA APLICADA, published 2019).
